Starred links: 1 amine or outer side, 2 acyl side, 3 side chain; linkers in the order of their positions; H or OH if unused. Non-standard residues stand in square brackets, D forms with d. No end group written: not given here. X1 = (2S,4S)‑4‑(4-ferrocenyl-1H-1,2,3-triazol-1-yl)pyrrolidine‑2‑carboxylic acid, O=C([C@@H]1C[C@H](n2cc(-[c-]3cccc3)nn2)CN1[*:1])[*:2].[Fe+2].c1cc[cH-]c1
Assays:
HIV-1_(92UG037-08) gp120 = HIV-1_(92UG037-08) gp120 (HIV-1 (strain 92UG037-08, clade A)); assay: SPR
HIV-1_(SF162) gp120 = HIV-1_(SF162) gp120 (HIV-1 (strain SF162, clade B)); assay: SPR

RINNI[X1]WSEAMM-NH2 [HNG-156, ferrocene triazole peptide conjugate]
Kd (HIV-1_(92UG037-08) gp120): 16.3 nM
Kd (HIV-1_(SF162) gp120): 9 nM

Source: paper PMC3652662 (Journal of molecular recognition : JMR, 2009)
